# Measured values taken from patent US20230250154A1 (CYTONICS, published 2023).
# Tests used:
# Test in all cases: cell-based or functional assay
# [1] = target: MMP13 (human, UniProt P45452 104-471, limits assumed)
# [2] = target: T1, ADAMTS5 (human, UniProt Q9UNA0 262-622, limits assumed)
# T1 sequence (looked up): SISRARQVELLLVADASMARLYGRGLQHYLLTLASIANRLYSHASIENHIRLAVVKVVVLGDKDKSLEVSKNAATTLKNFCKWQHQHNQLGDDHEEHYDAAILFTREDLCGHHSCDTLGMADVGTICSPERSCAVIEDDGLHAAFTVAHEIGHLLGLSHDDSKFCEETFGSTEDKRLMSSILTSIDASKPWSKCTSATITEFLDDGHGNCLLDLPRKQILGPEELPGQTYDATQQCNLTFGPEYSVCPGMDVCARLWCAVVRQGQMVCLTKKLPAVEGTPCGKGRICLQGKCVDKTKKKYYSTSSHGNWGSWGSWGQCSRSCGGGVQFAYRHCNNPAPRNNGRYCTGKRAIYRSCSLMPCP
# [3] = target: T2, ADAMTS4 (human, UniProt O75173 213-685, limits assumed)
# T2 sequence (looked up): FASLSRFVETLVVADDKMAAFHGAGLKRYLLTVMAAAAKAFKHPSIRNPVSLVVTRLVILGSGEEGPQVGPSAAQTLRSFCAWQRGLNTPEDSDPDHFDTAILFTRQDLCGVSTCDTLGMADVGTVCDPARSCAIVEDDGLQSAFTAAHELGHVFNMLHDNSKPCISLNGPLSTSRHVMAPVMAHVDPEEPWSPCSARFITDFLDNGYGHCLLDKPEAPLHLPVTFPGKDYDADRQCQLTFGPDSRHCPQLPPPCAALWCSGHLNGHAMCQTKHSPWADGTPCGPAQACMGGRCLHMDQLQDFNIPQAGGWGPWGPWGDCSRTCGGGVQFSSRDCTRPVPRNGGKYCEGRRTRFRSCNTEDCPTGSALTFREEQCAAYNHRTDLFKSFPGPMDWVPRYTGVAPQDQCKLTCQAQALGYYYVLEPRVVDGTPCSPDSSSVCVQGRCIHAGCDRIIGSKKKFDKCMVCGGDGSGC
Binder,Protease Inhibition (% of WT) [1],Protease Inhibition (% of WT) [2],Protease Inhibition (% of WT) [3]
"Variant A2M, bait region SEQ ID NO 88 (other) SVSGKPQYMVLVPSLLHTETTEKGCVLLSYLNETVTVSASLESVRGNRSLFTDLEAENDVLHCVAFAVPKSSSNEEVMFLTVQVKGPTQEFKKRTTVMVKNEDSLVFVQTDKSIYKPGQTVKFRVVSMDENFHPLNELIPLVYIQDPKGNRIAQWQSFQLEGGLKQFSFPLSSEPFQGSYKVVVQKKSGGRTEHPFTVEEFVLPKFEVQVTVPKIITILEEEMNVSVCGLYTYGKPVPGHVTVSICRKYSDASDCHGEDSQAFCEKFSGQLNSHGCFYQQVKTKVFQLKRKEYEMKLHTEAQIQEEGTVVELTGRQSSEITRTITKLSFVKVDSHFRQGIPFFGQVRLVDGKGVPIPNKVIFIRGNEANYYSNATTDEHGLVQFSINTTNVMGTSLTVRVNYKDRSPCYGYQWVSEEHEEAHHTAYLVFSPSKSFVHLEPMSHELPCGHTQTVQAHYILNGGTLLGLKKLSFYYLIMAKGGIVRTGTHGLLVKQEDMKGHFSISIPVKSDIAPVARLLIYAVLPTGDVIGDSAKYDVENCLANKVDLSFSPSQSLPASHAHLRVTAAPQSVCALRAVDQSVLLMKPDAELSASSVYNLLPEKDLTGFPGPLNDQDDEDCINRHNVYINGITYTPVSSTNEKDMYSFLEDMGLKAFTNSKIRKPKMCPQLEQYEMHGPEGLRVGIPENFFGVFYESDVMGRGHARLVHVEEPHTKLLRKYFPETWIWDLVVVNSAGVAEVGVTVPDTITEWKAGAFCLSEDAGLGISSTASLRAFQPFFVELTMPYSVIRGEAFTLKATVLNYLPKCIRVSVQLEASPAFLAVPVEKEQAPHCICANGRQTVSWAVTPKSLGNVNFTVSAEALESQELCGTEVPSVPEHGRKDTVIKPLLVEPEGLEKETTFNSLLCPSGGEVSEELSLKLPPNVVEESARASVSVLGDILGSAMQNTQNLLQMPYGCGEQNMVLFAPNIYVLDYLNETQQLTPEIKSKAIGYLNTGYQRQLNYKHYDGSYSTFGERYGRNQGNTWLTAFVLKTFAQARAYIFIDEAHITQALIWLSQRQKDNGCFRSSGSLLNNAIKGGVEDEVTLSAYITIALLEIPLTVTHPVVRNALFCLESAWKTAQEGDHGSHVYTKALLAYAFALAGNQDKRKEVLKSLNEEAVKKDNSVHWERPQKPKAPVGHFYEPQAPSAEVEMTSYVLLAYLTAQPAPTSEDLTSATNIVKWITKQQNAQGGFSSTQDTVVALHALSKYGAATFTRTGKAAQVTIQSSGTFSSKFQVDNNNRLLLQQVSLPELPGEYSMKVTGEGCVYLQTSLKYNILPEKEEFPFALGVQTLPQTCDEPKAHTSFQISLSVSYTGSRSASNMAIVDVKMVSGFIPLKPTVKMLERSNHVSRTEVSSNHVLIYLDKVSNQTLSLFFTVLQDVPVRDLKPAIVKVYDYYETDEFAIAEYNAPCSKDLGNADYKDDDDKGASHHHHHH",156 % of WT,108 % of WT,68 % of WT
"Variant A2M, bait region SEQ ID NO 89 (other) SVSGKPQYMVLVPSLLHTETTEKGCVLLSYLNETVTVSASLESVRGNRSLFTDLEAENDVLHCVAFAVPKSSSNEEVMFLTVQVKGPTQEFKKRTTVMVKNEDSLVFVQTDKSIYKPGQTVKFRVVSMDENFHPLNELIPLVYIQDPKGNRIAQWQSFQLEGGLKQFSFPLSSEPFQGSYKVVVQKKSGGRTEHPFTVEEFVLPKFEVQVTVPKIITILEEEMNVSVCGLYTYGKPVPGHVTVSICRKYSDASDCHGEDSQAFCEKFSGQLNSHGCFYQQVKTKVFQLKRKEYEMKLHTEAQIQEEGTVVELTGRQSSEITRTITKLSFVKVDSHFRQGIPFFGQVRLVDGKGVPIPNKVIFIRGNEANYYSNATTDEHGLVQFSINTTNVMGTSLTVRVNYKDRSPCYGYQWVSEEHEEAHHTAYLVFSPSKSFVHLEPMSHELPCGHTQTVQAHYILNGGTLLGLKKLSFYYLIMAKGGIVRTGTHGLLVKQEDMKGHFSISIPVKSDIAPVARLLIYAVLPTGDVIGDSAKYDVENCLANKVDLSFSPSQSLPASHAHLRVTAAPQSVCALRAVDQSVLLMKPDAELSASSVYNLLPEKDLTGFPGPLNDQDDEDCINRHNVYINGITYTPVSSTNEKDMYSFLEDMGLKAFTNSKIRKPKMCPQLEQYEMHGPEGLRVGKEEEGLGSFYESDVMGRGHARLVHVEEPHTKLLRKYFPETWIWDLVVVNSAGVAEVGVTVPDTITEWKAGAFCLSEDAGLGISSTASLRAFQPFFVELTMPYSVIRGEAFTLKATVLNYLPKCIRVSVQLEASPAFLAVPVEKEQAPHCICANGRQTVSWAVTPKSLGNVNFTVSAEALESQELCGTEVPSVPEHGRKDTVIKPLLVEPEGLEKETTFNSLLCPSGGEVSEELSLKLPPNVVEESARASVSVLGDILGSAMQNTQNLLQMPYGCGEQNMVLFAPNIYVLDYLNETQQLTPEIKSKAIGYLNTGYQRQLNYKHYDGSYSTFGERYGRNQGNTWLTAFVLKTFAQARAYIFIDEAHITQALIWLSQRQKDNGCFRSSGSLLNNAIKGGVEDEVTLSAYITIALLEIPLTVTHPVVRNALFCLESAWKTAQEGDHGSHVYTKALLAYAFALAGNQDKRKEVLKSLNEEAVKKDNSVHWERPQKPKAPVGHFYEPQAPSAEVEMTSYVLLAYLTAQPAPTSEDLTSATNIVKWITKQQNAQGGFSSTQDTVVALHALSKYGAATFTRTGKAAQVTIQSSGTFSSKFQVDNNNRLLLQQVSLPELPGEYSMKVTGEGCVYLQTSLKYNILPEKEEFPFALGVQTLPQTCDEPKAHTSFQISLSVSYTGSRSASNMAIVDVKMVSGFIPLKPTVKMLERSNHVSRTEVSSNHVLIYLDKVSNQTLSLFFTVLQDVPVRDLKPAIVKVYDYYETDEFAIAEYNAPCSKDLGNADYKDDDDKGASHHHHHH",1 % of WT,485 % of WT,101 % of WT
"Variant A2M, bait region SEQ ID NO 86 (other) SVSGKPQYMVLVPSLLHTETTEKGCVLLSYLNETVTVSASLESVRGNRSLFTDLEAENDVLHCVAFAVPKSSSNEEVMFLTVQVKGPTQEFKKRTTVMVKNEDSLVFVQTDKSIYKPGQTVKFRVVSMDENFHPLNELIPLVYIQDPKGNRIAQWQSFQLEGGLKQFSFPLSSEPFQGSYKVVVQKKSGGRTEHPFTVEEFVLPKFEVQVTVPKIITILEEEMNVSVCGLYTYGKPVPGHVTVSICRKYSDASDCHGEDSQAFCEKFSGQLNSHGCFYQQVKTKVFQLKRKEYEMKLHTEAQIQEEGTVVELTGRQSSEITRTITKLSFVKVDSHFRQGIPFFGQVRLVDGKGVPIPNKVIFIRGNEANYYSNATTDEHGLVQFSINTTNVMGTSLTVRVNYKDRSPCYGYQWVSEEHEEAHHTAYLVFSPSKSFVHLEPMSHELPCGHTQTVQAHYILNGGTLLGLKKLSFYYLIMAKGGIVRTGTHGLLVKQEDMKGHFSISIPVKSDIAPVARLLIYAVLPTGDVIGDSAKYDVENCLANKVDLSFSPSQSLPASHAHLRVTAAPQSVCALRAVDQSVLLMKPDAELSASSVYNLLPEKDLTGFPGPLNDQDDEDCINRHNVYINGITYTPVSSTNEKDMYSFLEDMGLKAFTNSKIRKPKMCPQLEQYEMHGPEGLRVGSELEGRGSKEEEGLGSIPENFFGVKLRKYFPETWIWDLVVVNSAGVAEVGVTVPDTITEWKAGAFCLSEDAGLGISSTASLRAFQPFFVELTMPYSVIRGEAFTLKATVLNYLPKCIRVSVQLEASPAFLAVPVEKEQAPHCICANGRQTVSWAVTPKSLGNVNFTVSAEALESQELCGTEVPSVPEHGRKDTVIKPLLVEPEGLEKETTFNSLLCPSGGEVSEELSLKLPPNVVEESARASVSVLGDILGSAMQNTQNLLQMPYGCGEQNMVLFAPNIYVLDYLNETQQLTPEIKSKAIGYLNTGYQRQLNYKHYDGSYSTFGERYGRNQGNTWLTAFVLKTFAQARAYIFIDEAHITQALIWLSQRQKDNGCFRSSGSLLNNAIKGGVEDEVTLSAYITIALLEIPLTVTHPVVRNALFCLESAWKTAQEGDHGSHVYTKALLAYAFALAGNQDKRKEVLKSLNEEAVKKDNSVHWERPQKPKAPVGHFYEPQAPSAEVEMTSYVLLAYLTAQPAPTSEDLTSATNIVKWITKQQNAQGGFSSTQDTVVALHALSKYGAATFTRTGKAAQVTIQSSGTFSSKFQVDNNNRLLLQQVSLPELPGEYSMKVTGEGCVYLQTSLKYNILPEKEEFPFALGVQTLPQTCDEPKAHTSFQISLSVSYTGSRSASNMAIVDVKMVSGFIPLKPTVKMLERSNHVSRTEVSSNHVLIYLDKVSNQTLSLFFTVLQDVPVRDLKPAIVKVYDYYETDEFAIAEYNAPCSKDLGNADYKDDDDKGASHHHHHH",120 % of WT,74 % of WT,91 % of WT
